Results as given in patent publication US20190194317A1 (FARON PHARMACEUTICALS, published 2019).
Substitutions are numbered along the chain they refer to.

T1: CLEVER-1 coated on the ELISA plate (competition ELISA, Examples 5 and 10) (human, UniProt Q9NY15 26-1027, limits assumed)
T1 construct: Coated at 1 ug/ml in PBS; also called human Clever-1
T1 sequence (looked up): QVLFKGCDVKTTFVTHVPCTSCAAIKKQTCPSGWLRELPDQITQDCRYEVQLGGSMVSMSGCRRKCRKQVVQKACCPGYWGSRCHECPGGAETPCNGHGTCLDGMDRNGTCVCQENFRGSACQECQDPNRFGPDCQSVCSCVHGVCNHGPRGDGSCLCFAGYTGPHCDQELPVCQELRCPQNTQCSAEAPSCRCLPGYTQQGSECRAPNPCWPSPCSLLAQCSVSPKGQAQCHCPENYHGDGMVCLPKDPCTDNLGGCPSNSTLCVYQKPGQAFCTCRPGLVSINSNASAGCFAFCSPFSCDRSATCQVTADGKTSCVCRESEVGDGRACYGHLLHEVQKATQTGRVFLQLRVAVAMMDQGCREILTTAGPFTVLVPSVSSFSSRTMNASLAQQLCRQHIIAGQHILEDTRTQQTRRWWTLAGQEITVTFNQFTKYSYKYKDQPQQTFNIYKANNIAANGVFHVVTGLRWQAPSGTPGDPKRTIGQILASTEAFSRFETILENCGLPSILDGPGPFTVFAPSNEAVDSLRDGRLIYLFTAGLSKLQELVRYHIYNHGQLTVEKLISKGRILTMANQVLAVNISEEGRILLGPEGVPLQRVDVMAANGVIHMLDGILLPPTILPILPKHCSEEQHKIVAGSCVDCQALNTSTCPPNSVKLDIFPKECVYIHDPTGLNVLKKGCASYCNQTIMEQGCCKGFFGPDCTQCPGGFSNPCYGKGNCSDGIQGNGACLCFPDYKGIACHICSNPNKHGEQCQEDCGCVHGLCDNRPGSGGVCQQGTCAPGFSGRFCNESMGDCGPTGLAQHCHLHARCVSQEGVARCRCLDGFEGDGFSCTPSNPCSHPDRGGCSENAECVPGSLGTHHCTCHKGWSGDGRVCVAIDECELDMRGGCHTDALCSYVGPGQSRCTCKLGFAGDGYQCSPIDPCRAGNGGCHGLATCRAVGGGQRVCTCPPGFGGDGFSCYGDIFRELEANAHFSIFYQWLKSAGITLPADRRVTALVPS

B1: Composite Human anti-CLEVER-1 antibody VH2/VK2 (antibody, human IgG4, V domains shown)
VH: QVTLKESGPTLVKPTQTLTLTCSFSGFSLSTSGMGIGWIRQPSGKALEWLAHIWWDDDKRYNPALKSRLTISKDTSKNQVVLTMTNMDPVDTATYYCARHYGYDPYYAMDYWGQGTLVTVSS
VL: QIVLTQSPGTLSLSPGERATMSCTASSSVSSSYLHWYQQKPGKAPKLCIYRTSNLASGVPSRFSGSGSGTDYTLTISSLQPEDFATYYCHQYHRSPPTFGQGTKLEIK
B2: Composite Human anti-CLEVER-1 antibody VH1/VK5 (antibody, human IgG4, V domains shown)
VH: B1 VH with L11I, S30N, L117S
VL: B1 VL with Q1E, M21L, C48L
B3: Composite Human anti-CLEVER-1 antibody VH4/VK2 (antibody, human IgG4, V domains shown)
VH: B1 VH with S23T, S43P
VL: B1 VL
B4: Composite Human anti-CLEVER-1 antibody VH3/VK2 (antibody, human IgG4, V domains shown)
VH: B1 VH with S43P
VL: B1 VL
B5: Composite Human anti-CLEVER-1 antibody VH1/VK2 (antibody, human IgG4, V domains shown)
VH: B1 VH with L11I, S30N, L117S
VL: B1 VL
B6: Composite Human anti-CLEVER-1 antibody VH1/VK1 (antibody, human IgG4, V domains shown)
VH: B1 VH with L11I, S30N, L117S
VL: B1 VL with T10I, P81A
B7: Composite Human anti-CLEVER-1 antibody VH2/VK1 (antibody, human IgG4, V domains shown)
VH: B1 VH
VL: B1 VL with T10I, P81A
B8: Composite Human anti-CLEVER-1 antibody VH1/VK3 (antibody, human IgG4, V domains shown)
VH: B1 VH with L11I, S30N, L117S
VL: B1 VL with Q1E
B9: Composite Human anti-CLEVER-1 antibody VH2/VK3 (antibody, human IgG4, V domains shown)
VH: B1 VH
VL: B1 VL with Q1E
B10: Composite Human anti-CLEVER-1 antibody VH4/VK5 (antibody, human IgG4, V domains shown)
VH: B1 VH with S23T, S43P
VL: B1 VL with Q1E, M21L, C48L
notes: Named as a potential lead
B11: Composite Human anti-CLEVER-1 antibody VH2/VK5 (antibody, human IgG4, V domains shown)
VH: B1 VH
VL: B1 VL with Q1E, M21L, C48L
notes: Named as a potential lead
B12: humanized anti-CLEVER-1 antibody FAR02 VH3/VK5 (antibody, V domains shown)
VH: B1 VH with S43P
VL: B1 VL with Q1E, M21L, C48L
notes: Named as a potential lead; also called FAR02 VH3A/K5
B13: Composite Human anti-CLEVER-1 antibody VH2/VK4 (antibody, human IgG4, V domains shown)
VH: B1 VH
VL: B1 VL with T10I, C48L, P81A
B14: Composite Human anti-CLEVER-1 antibody VH4/VK1 (antibody, human IgG4, V domains shown)
VH: B1 VH with S23T, S43P
VL: B1 VL with T10I, P81A
B15: Composite Human anti-CLEVER-1 antibody VH4/VK4 (antibody, human IgG4, V domains shown)
VH: B1 VH with S23T, S43P
VL: B1 VL with T10I, C48L, P81A
B16: Composite Human anti-CLEVER-1 antibody VH1/VK4 (antibody, human IgG4, V domains shown)
VH: B1 VH with L11I, S30N, L117S
VL: B1 VL with T10I, C48L, P81A
B17: Composite Human anti-CLEVER-1 antibody VH3/VK1 (antibody, human IgG4, V domains shown)
VH: B1 VH with S43P
VL: B1 VL with T10I, P81A
B18: Composite Human anti-CLEVER-1 antibody VH3/VK4 (antibody, human IgG4, V domains shown)
VH: B1 VH with S43P
VL: B1 VL with T10I, C48L, P81A
B19: chimeric 3-372 IgG4 (antibody, V domains shown)
VH: QVTLKESGPGILQPSQTLSLTCSFSGFSLNTSGMGIGWIRQPSGKGLEWLAHIWWDDDKRYNPALKSRLTISKDTSSNQVFLKIASVDTADTATYYCARHYGYDPYYAMDYWGQGTSVTVSS
VL: QIVLTQSPAIMSASLGERVTMTCTASSSVSSSYLHWYQQRPGSSPKLCIYRTSNLASGVPPRFSGSGSGTSYSLTISSMEAEDAATYYCHQYHRSPPTFGGGTKLEIN
notes: Expressed in NSO cells; also called CH/CK; chimera
B20: mouse monoclonal antibody 3-372 (DSM ACC2520) (antibody, V domains shown)
VH: B19 VH
VL: B19 VL
notes: Mouse hybridoma antibody with kappa light chain

Key:
[1] = molecular target: T1, CLEVER-1 coated on the ELISA plate …; test: competition ELISA on coated CLEVER-1 against biotinylated mouse 3-372
Procedure: These were incubated for 1 hour at room temperature on a 96 well Immulon maxisorp plate (Fisher Cat. No. DIS-971-030J) precoated with 1 μg/ml CLEVER-1. […] The reaction was stopped with 3M HCl, absorbance read at 450 nm on a Dynex Technologies MRX TC II plate reader and the binding curves plotted. IC50 values for each antibody were calculated and these were normalized to the IC50 of the chimera which was included on each respective ELISA plate.

[2] = molecular target: T1, CLEVER-1 coated on the ELISA plate …; test: competition ELISA on coated CLEVER-1 against 0.6 µg/ml biotinylated mouse 3-372
Procedure: Briefly, a Nunc Immulon 96 well maxisorp plate (Fisher Cat. No. DIS-971-030J) was coated with CLEVER-1 at 1 μg/ml in PBS (100 μl/well) overnight at 4° C., with an additional 1 hour at 37° C. the following morning. Wells were washed with PBS/0.1% Tween 20 and then blocked for 45 min at room temperature, in 1% Marvel/1% BSA/PBS.
The blocked ELISA plate was washed as before and 100 μl of the premixed antibodies added to each well. The plate was incubated for 1 hour at room temperature.
This confirms that the correct variable region sequences have been identified and expressed in the chimeric antibody.

| Binder | Relative IC50 [1] | IC50 [2] [µg/mL] |
| --- | --- | --- |
| B1 | 0.95 relative to the chimera on the same plate | – |
| B2 | 1.13 relative to the chimera on the same plate | – |
| B3 | 0.9 relative to the chimera on the same plate | – |
| B4 | 0.51 relative to the chimera on the same plate | – |
| B5 | 1.37 relative to the chimera on the same plate | – |
| B6 | 0.84 relative to the chimera on the same plate | – |
| B7 | 0.82 relative to the chimera on the same plate | – |
| B8 | 1.63 relative to the chimera on the same plate | – |
| B9 | 0.7 relative to the chimera on the same plate | – |
| B10 | 0.46 relative to the chimera on the same plate | – |
| B11 | 0.52 relative to the chimera on the same plate | – |
| B12 | 0.42 relative to the chimera on the same plate | – |
| B13 | 0.79 relative to the chimera on the same plate | – |
| B14 | 1.86 relative to the chimera on the same plate | – |
| B15 | 1.2 relative to the chimera on the same plate | – |
| B16 | 1.17 relative to the chimera on the same plate | – |
| B17 | 0.76 relative to the chimera on the same plate | – |
| B18 | 0.47 relative to the chimera on the same plate | – |
| B19 | 1 relative to the chimera on the same plate | 0.89 |
| B20 | – | 0.77 |
